These results are taken from PMC4652225.

Assay [1] concerns the target GST-H1.2 wild type (human) (UniProt P16403). In words: pull-down; GST-H1.2 attached to glutathione beads, FITC-conjugated H3 peptides in solution; increasing KCl from 100 to 400 mM (Fig. S1A).
Assay [2] has as its target Flag-tagged K27-mutated (K27R) H3 (in mononucleosomes) (human) (UniProt P68431). The assay is described as follows: co-IP; MCF7 cells transfected with Flag-H3 WT or K27R; mononucleosomes by MNase digestion, immunoprecipitated with Flag antibody; Western blot with H1.2 antibody (Fig. 2A). (In general: A western blot detects proteins with antibodies after separation by electrophoresis.)

FITC-conjugated H3K27me0 peptide yielded a fold weaker interaction than the H3K27me3 peptide at elevated KCl in assay [1] of 3 fold.
Still for that read-out and setting: the figure for FITC-conjugated H3K27me1 peptide is 3 fold; for FITC-conjugated H3K27me2 peptide it is 3 fold.
In assay [2], “linker histone H1.2 (endogenous) (from UniProt P16403 1-213) (natural protein)” displayed a fold reduction of the interaction against wild type H3 nucleosomes of 2.5 fold.
